Measured values reported in the nanobody polyreactivity screen of Harvey et al. (2022).

Test: yeast display, Sf9 membrane polyspecificity reagent, FACS + sequencing; frameworks hold sequencing errors
How it was run: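 Galactose induction of a Saccharomyces cerevisiae BJ5465 synthetic nanobody display library ran 36–48 hours. The cells were then stained for 1 hour at 4 °C with 10% biotinylated, detergent-solubilized Sf9 membrane reagent, pulled down on streptavidin microbeads and FACS-sorted into low and high (top ~1%) gates on expression and reagent-binding fluorescence. Labels for polyreactivity follow the gate of origin.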

| Sequence | polyreactivity (PSR sort gate) |
| --- | --- |
| QVQLVESGGGLVQAGGSLRLSCAASGLTFNRYAMGWYRQARGKERELVAAISINGGSTYYADSVKGRFTISRDNAKNTVYLQMNSLKPEDTAVYYCAARRVQRPSTYGYWGQGTQVTVSS | high polyreactivity |
| QVQLLESGGGLLQAGASLLLSCAASGNIFYRNAMGWYRQAPGKERELVAAISSGGITYYADSVKGRYTISRDNAKNSVSLQMNSLKPEDTAVYYCAAYIRNWRATYEYWGQGSQVTVSS | high polyreactivity |
| QVQLVESGGGLVQAGGSLRLSCAASGSIFGSYAMGWYRQAPGKEREFVAGIDQSGSSTYYADSVKGRFTISRDNAKNTVYLQMNSLKPEDTAVYYCNAVWYFYSTYRKYYYWGQGTQVTVSS | high polyreactivity |
| QVQLVESGGGLVQAGGSLRLSCAASGFTFDSYAMGWYRQAPGQERELVPAISSSSSTNYADSVKGRFTISRDNAKNTVYLPLNSLKPEDTAVYYCNADSPEGYRLLDYWGQGTQVTVSS | low polyreactivity |
| QVQLVESGGGLVQAGGSLRLSSAASGSTFHNYAMRWSRQAPGNEREWVASIRLIGGSTYYADSVKGRFTISRDNAKNTVYLQMNSLKPEDTAVYYCAATSTDRSYLEYDYWGQGTQVTVSS | low polyreactivity |
| EVQLVESGGGVDQAVGSLRLSCAASGSIFLFYARGWYRQARGKEMELVARISFRSTSTYYADSVKGRFTISLDNAKYTVSLQMNSLKPEDTAVYYCATRTWYGYLYDYWGQGTQVTVSS | high polyreactivity |
| QVQLVESGGGLVQAGGSLRLSCAASGFTFPYNAMGWYRQAPGKERELVAAISSTGGITYYADSVKGRFTISRDNEKNTVYLQMNSLKPEDTAVYYCNAGYPDYDWTWWHISYDYWGQGTQVTVSS | low polyreactivity |
| QVQLVDSRGGLVQAGGSLRLSCAASGFIFSRYAMGWSRQAPGKERELVAAISYRGGSTYYADSVKGRFTISRDNAKNPVYLQMNSLKPEDTAVYYCAASLRYYGLEMDYWGQGTQVTVSS | high polyreactivity |
| QVQLVESGGGLVQAGGSLRLSCDASGRIFLDYVMGWYRQAPGKERELVAAISWSGDRTDYADSVKGRFTISRDNAKNTVYLQMNSLKPEDTAVYYCATTWYFAYSDDYKFDYWGQGTQVTVSS | low polyreactivity |
| QVQLVESGGGLVQAGGSLRLSCAASGSTFYQYAMGWYRQAPGKERELVAVITGSGGSTYYADSVKGRFTISRDNAKNTVYLQMNSLKPEDTAVYYCAAGARYFIYRTTSLGGNYWGQGTQVTVSS | high polyreactivity |
| QVQLVESGGGLVQAGGSLRLSCAASGSTFDSYAMGWYRQAPGKERELVAAITTTGGSTFYADSVKGRFTISRDNAKNTVYLQMNSLKPEDTAVYYCAADDGWQEFEYWGQGTQVTVSS | low polyreactivity |
| QVQHVESRGGLVQARGSLRLSCAASGRIFSPYAMGWYRQAPGKERELVAAITWSGGSTYYADSVKGRFTISRDNAMNTVYLQMNSLKQEDTAVYYCAADFYRRYYAWEYYYWGQGTQVTVSS | high polyreactivity |
| QVQLEESGGGLVQAGGSLRLSCAAYGSTFSYAMGWYRQAPGKERELVAAITIGGRTSYADSVKGRFTISRDNAKNTVYLQMSSLKPEDTAVYYCAADDLPGMDYWGQGTQVTVSS | low polyreactivity |
| QVQLVESGGGLVQAGGSLRLSCAASGFIFDVNAMGWYRQAPGKERELVATISKRGGTTYYADSVKGRFTISRDNAKNTVYLQMNSLKPEDTAVYYCAARHQTLRSYRYDYWGQGTQVTVSS | low polyreactivity |
| QVQLVESGGGLVQAGGSLRLSCAASGSITPRNAMGWYRQAPGKERELVARISGSGGTTYYADSVKGRFTISRDNAKNTVYLQMKSLKPEDTAVYYCAASVRWNKYTLYDYWGQGTQVTVSS | low polyreactivity |
| QVQLVESGGGLVQAGGSLRLSCAASGIISSVYAMGWYRQAPGKERELVAAITGSGGNTYYADSVKGRFTISRDNAKNTVSLQMNSLKPEDTAVYYCATDDAIISYELVYQYDHWGQGTQVTVSS | low polyreactivity |
| QVQHVESGGGLVQAGGSLRLICAASGLTFPYYAMGWYRQDAGKVSELVAAITWSGGTTDYADSVKGRFTISRDNAKNTVYFKMITLKPEDTAVYFCAARVLWKGYYWGQGTQVTVSS | low polyreactivity |
| QVQLVESGGGLVQAGGSLRLSCAASGYIFEVNTMGWYIQAPGKERELVAAITSGGTTYYADSVKGRFTISRDNAKNTVYLQMNSLKPDDTAVYYCAALWSRRRSRPRFDYWGQGTQVTVSS | high polyreactivity |
| QVQLVESGGGLVQAGGSLRLSCAASGFILARYAMGWYRQAPGKERELVAVISSGGSSTFYADSVKGRFTISRDNAKNTVYLQMNSLKPEDTAVYYCAARYKSSKKVGFDYWGQGTQVTVSS | high polyreactivity |
| QVQLVESGGGLVQAGGSLRLSCAASGRISGRYAMGWYRQAPGKERELVAAITGRGGGTFYADSVKGRFTISRDNAKNTVYLQMNSLKPEDTAVYYCNTDYGSSYNYCGQGTQVTVSS | high polyreactivity |
| QVQLVESGGGLVQAGGSLRLSCAASGSTFAANPMGWYRQAPGKERELVAAITSSGGSTYYADSVKGRFTISRDNAKNTVYLQMNSLKPEDTEVYYCNKDIERYVRIYDSWGQGTQVTVSS | low polyreactivity |
| QVQLVESGGGLVHAGGSLRLSCAASGRTIGYYAMGWYRQAPGKERELVAAISWSGGSTYYADSVKGRFTISRDIAKNTVYLQMNSLKPEATAVYYCAAKYSFRAAHYYYWGQGTQVTVSS | high polyreactivity |

| Sequence | polyreactivity (PSR sort gate) |
| --- | --- |
| QVQLVESGGGLVQAGGSLRLSCAASGFIFRYYAMGWYRQAPGKERELVAAISWSGGSTYYADSVKGRFTISRDNAKNTVYLQMNSLKPEDTAVYYCNAVTTYGEYDYWGQGTQVTVSS | high polyreactivity |
| QVLLQESGGGLVEAGGSLRLSCAASGTISTDIRMGWYRLAPGKEREFVASIDGGSTTYYADSVKGRFTISRDNAKNTVYLQMNSLKPQDTAMYYCAAGEATEFYLYYWGQGTQVTVSS | low polyreactivity |
| QVQLVESGGGLVQAGGSLRLSCAASGRIFDGNTMGWYIPAPGKERELVAAISGGGSTDYADSVKGRFTISRDNAKNTVYLQMNSLKPEDTAVYYCAATTGPVPLKGDYWGQGTQVTVSS | low polyreactivity |
| QVQLVESGGGLVQAGGSLRLSCAASGRIFPYYAMGWYRQAPGKEREFVAAITSSGGTTYYADSVKGRFTISRDNAKNTVYLQMNSLKPEDTAVYYCFAVRLYALYAGRPYDYWGQGTQVTVSS | low polyreactivity |
| QVQLVESGGGLVQAGASLRLSCAASGRTFWKYVMGWYRQAPGKDRLLVAVISRPAGSTYYADSVKGRFTISRDNAKNTVYLQMNSLKPEDTAVYYCAKRPKNKPVLGDFDHWGQGTQVTVSS | low polyreactivity |
| QLQLVESGAGRVQAGGSLRLRCAAAGSILRDNAMVWYRQAPWKEREFVADIRGSDDTTYYADSVKGRFTISRDNGKNSVYLQMNSLKPEDTAVYYSNRDDAWQEYDYWGQGTQVTVSS | low polyreactivity |
| QVQLGESGGGLVQAGGSLRLSCAASGITFPGYAMGWYRQAPGKERELVARISRSGGSTYYADSVKGRFTISRDNAKNTVYFQMNSLKPEDTAVYYCAAGAYRSGGYSFDDWGQGTQVTVSS | low polyreactivity |
| QVQLGESGGGLVQAGGSLRLSCAASGSISTYYPMGWYRQATGKERELVASITSRASTNYADSVKGRFTISRDNAKNTVYLQMNSLKPEDTAGNYCNADQRDYGSYVTKLDYWGQGTQVTVSS | low polyreactivity |
| QVQLVESGGGLVQAGGSLRLSCAASGRIFFSYDMGWYTQAPGKERELVAAIDYIAGNTYYADSVKGRFTISRDNAKNTVYLQMNSLKPEDTAVYYCAADVLDWYDLLRDDYWGQGTQVTVSS | low polyreactivity |
| QVQLVESGGGLVQAGGRLRLSFAASGSIFVFYVMGWYRQAHGKERELVAAISNSGSSTYYADSVKGRFTISRDNAKNTVYLQINSLKPEDTAVYYCAAEYKIPVGFDYWGQGTQVTVSS | low polyreactivity |
| QVQLVESGGGLVQAGGSLRLSCAASGFTFEYYTMGWYRQAPGTERELVAAITKRGGSTYYADSVKGRFTISRDNAKNTVYLQMNSLKPEDTAVYYCAVRKPYSRYTVNYDSWGQGTQVTVSS | high polyreactivity |
| QVQLVESGGGLVQAGGSLRLSCAASGSIFYYNAKGWYTQAPGKERELVAVISYRSGRTSDADSVKGRFTISRDNAKNTVYLQMNSLKPEDTAVYYCATRDWWRYRHTGVIKFDYWGQGTQVSVSS | high polyreactivity |
| QFQLVESGGVLVQAGGILRLSCAASGSIFIDNAMGWYRQEPGKERDLVAAITVRGASTNYADSVKGRFTISRDNAKNTVYLQMNSLKPEDTAVYYCNAVGLRSPWHQDYLIRYDYWGQGTQVTVSS | low polyreactivity |
| QVQLVESGGGLVQAGGSLRLSCAASGRTFTANAMGWYRQAPGKERELVAGITSRGGGTYYADSVKGRFTISRDNAKNTVYLQMNSLKPEDTAVYYCAAPYNGGGVHSYWEYDYWGQGTQVSVSS | high polyreactivity |
| QVQLVESGGGLVQAGGSLRLSCAASGRTFYRNARGWYRQAPGKERELVAVISSSGVRTYYADSVKGRFTISRDNAKNTVYLQRNSQKPEDTAVYYCAADSNSYYRGFDYWGQGTQVTVSS | high polyreactivity |
| QVQLVESGGGLVQAGGSLRLSCAASGFTFPSYAMAWYRQDPGKEREFVAGITKGGGNTYYADAVKGRFTISRDNAKNTVYLQKNSLKQEDTAVYYCSADRSSFYWSHGTVYGYDYWGQGTQVTVSS | low polyreactivity |
| QVQLVESGVGLVQAGGSLRLSCAASGLIFYHNAMGWYRQAPGKERELVAAISRSGGRTYYADSVKGRFTISRDNAKNTVYLQMNSLKPEDSAVYYCAVYRSSDFDYWGQGTQVTVSS | high polyreactivity |
| QVQLVESGGGLVQAGGSLRLSCAASGFTFHTYAMGWYRQAPGKERELVAAIDSSGGITYYADSVKGRFTISRDHAKNTVYLQMNSLKPEDTAVYYCAAVFLLFGFEWSYDYWGQGTQVTVSS | low polyreactivity |
| QVQIVESGGGLVQAGGSLRLSCAASGRIFHWYTMGWYRQAPGKERELVAAISGSGGSTHYADSVKGRFTISRDNAKNTVYLQMNSLKPEDTAVYYCAADDGFYGQDLDYWGQGTQVTVSS | low polyreactivity |
| QVQLVESGGGLVQAGGSLRLSCAASGFIFWRNAMGWYSQAPGQERELVAAITSGDRTNYADSVKGRFTISRDNAKNTVYLQMNSLKPEDTAVYYCNARRYRLVSYDYWGQGTQVTVSS | low polyreactivity |
| QVQLVESGGGLVHAGGSLRLSCAASGYIFTRNMGWYRQAPGKERELVAAITWSGGSTYYADSVKGRFTISRDNAKNTVYLQINSLKPEDTAVYYCAADYGWSVGRRYYYWGQGTQVTVSS | high polyreactivity |
